First the molecules themselves.
B1: Clover-AZIN (antizyme inhibitor with an N-terminal Clover tag) [human] / antizyme-mRuby2 (antizyme with a C-terminal mRuby2 tag) [human] (parent complex)
chain 1: MKGFIDDANYSVGLLDEGTNLGNVIDNYVYEHTLTGKNAFFVGDLGKIVKKHSQWQNVVAQIKPFYTVKCNSAPAVLEILAALGTGFACSSKNEMALVQELGVPPENIIYISPCKQVSQIKYAAKVGVNILTCDNEIELKKIARNHPNAKVLLHIATEDNIGGEEGNMKFGTTLKNCRHLLECAKELDVQIIGVKFHVSSACKESQVYVHALSDARCVFDMAGEIGFTMNMLDIGGGFTGTEFQLEEVNHVISPLLDIYFPEGSGVKIISEPGSYYVSSAFTLAVNIIAKKVVENDKFPSGVEKTGSDEPAFMYYMNDGVYGSFASKLSEDLNTIPEVHKKYKEDEPLFTSSLWGPSCDELDQIVESCLLPELNVGDWLIFDNMGADSFHEPSAFNDFQRPAIYYMMSFSDWYEMQDAGITSDSMMKNFFFVPSCIQLSQEDSFSAEA
chain 2: not shown

One test covers variants of B1. As to the kind of experiment: FRET titration; parent: 24 nM; read off a plot.
As for chain 1 F395A, the Kd was roughly 58 nM.
On to chain 1 R144A, for which the dissociation constant (Kd) is roughly 10 nM.
As to chain 1 S118A, the equilibrium dissociation constant (Kd) is roughly 15 nM.
As to chain 1 C114A, the Kd is roughly 28 nM.
Still for that read-out and setting: the value for chain 1 S91A was roughly 26 nM; that for chain 1 Q119A was roughly 9.6 nM; that for chain 1 K175A was roughly 30 nM.
On to chain 1 K92A, for which the Kd is roughly 25 nM.
As to chain 1 K63A, the Kd was roughly 23 nM.
For chain 1 S367A, the Kd was roughly 39 nM.
Regarding chain 1 D359A, the dissociation constant (Kd) was roughly 41 nM.
In the case of chain 1 F170A, the Kd was roughly 27 nM.
For the variant chain 1 K69A, the equilibrium dissociation constant (Kd) is roughly 21 nM.
For the variant chain 1 Y321A, the Kd was roughly 27 nM.
Regarding chain 1 M168A, the Kd was roughly 21 nM.
Regarding chain 1 K169A, the dissociation constant Kd is roughly 21 nM.
As for chain 1 Q116A, the Kd was roughly 21 nM.
As to chain 1 D134A, the Kd was roughly 18 nM.
In the case of chain 1 N93A, the dissociation constant (Kd) was roughly 35 nM.
In the case of chain 1 N396A, the Kd was roughly 47 nM.
Turning to chain 1 F398A, the dissociation constant Kd is roughly 23 nM.
For the variant chain 1 E366A, the dissociation constant (Kd) is roughly 31 nM.
With chain 1 K141A, the equilibrium dissociation constant (Kd) is roughly 19 nM.
As for chain 1 L361A, the dissociation constant (Kd) is roughly 55 nM.
For the variant chain 1 D423A, the dissociation constant Kd was roughly 23 nM.
On to chain 1 L139A, for which the dissociation constant Kd was roughly 9.3 nM.
Turning to chain 1 E136A, the Kd was roughly 20 nM.
Turning to chain 1 K115A, the Kd was roughly 23 nM.
For chain 1 S393A, the Kd is roughly 25 nM.
With chain 1 D214A, the Kd was roughly 27 nM.
In the case of chain 1 L328A, the Kd is roughly 26 nM.
The same measure, in the same setting: the value for chain 1 E391A was roughly 12 nM; that for chain 1 S329A was roughly 24 nM.
On the same count and under the same terms, the value for chain 1 E138A was roughly 20 nM.

In another test the parent is B1. As to the kind of experiment: FRET titration; Clover-containing proteins 50 nM; titration of AZ-mRuby2; parent: 22.2 nM.
Turning to chain 1 S329Y, the Kd came to 28.6 nM.
